Molecular target: the molecule itself
Assay: AUC

B1: VapB22 antitoxin (Rv2830c) from Mycobacterium tuberculosis, expressed alone from pET28b (natural protein)
chain: MTATEVKAKILSLLDEVAQGEEIEITKHGRTVARLVAATGPHALKGRFSGVAMAAADDDELFTTGVSWNVS
stoichiometry N: 2
